Consider nine molecules from PMC7966918 (Cell Research, 2021).

Experiment [1] has as its target T1, SARS-CoV-2 RBD (residues Arg319–Phe541) (SARS-CoV-2, UniProt P0DTC2). As to the kind of experiment: cell-based or functional assay.
Experiment [2] has as its target T1, SARS-CoV-2 RBD (residues Arg319–Phe541). As to the kind of experiment: SPR. To be noted: both partners purified.

B1: P5A-2F11 (full-length IgG) (antibody, V domains shown)
VH: QVQLVQSGAEVKKPGASVKVSCKASGYTFTSYDINWVRQATGQGLEWMGWMNPNSGNTGYAQKFQGRVTMTRNTSISTAYMELSSLRSEDTAVYYCARYIVVVPAAKGFDPWGQGTLVTVSS
VL: not shown
B1: the other in experiment [1] turned out to be 56.2%. In experiment [2], this molecule displayed an equilibrium dissociation constant (Kd) of 5.33 nM.

B2: P5A-3C12 (full-length IgG) (antibody, V domains shown)
VH: QITLKESGPTLVKPTQTLTLTCTFSGFSLSTSGVGVGWIRQPPGKALEWLALIYWDDDKRYSPSLKSRLTITKDTSKNQVVLTMTNMDPVDTATYYCAHSLFLTVGYSSSWSPFDYWGQGTLVTVSS
VL: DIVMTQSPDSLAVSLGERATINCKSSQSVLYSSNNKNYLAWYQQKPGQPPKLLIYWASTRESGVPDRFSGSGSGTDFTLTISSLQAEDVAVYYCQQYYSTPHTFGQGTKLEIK
B2: the other in experiment [1] was 54.5%. This molecule showed a Kd in experiment [2] of 1.03 nM.

B3: P5A-1B6 (full-length IgG) (antibody, V domains shown)
VH: QVQLVESGGGVVQPGRSLRLSCAASGFTFSSYAMHWVRQAPGKGLEWVAVISYDGSNKYYADSVKGRFTISRDNSKNTLYLQMNSLRAEDTAVYYCARDGQAITMVQGVIGPPFDYWGQGTLVTVSS
VL: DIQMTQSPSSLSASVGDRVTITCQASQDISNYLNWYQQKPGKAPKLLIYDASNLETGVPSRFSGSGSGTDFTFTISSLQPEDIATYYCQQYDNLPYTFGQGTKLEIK
For the molecule B3, in experiment [1], the other came out at 76%. Moreover, in experiment [2], the affinity, expressed as Kd, was 1.01 nM.

B4: P2B-1A10 (full-length IgG) (antibody, V domains shown)
VH: EVQLVESGGGLIQPGGSLRLSCAASGFTVSSNYMSWVRQAPGKGLEWVSVIYSGGSTYYADSVKGRFTISRDNSKNTLYLQMNSLRAEDTAVYYCAREGPKSITGTAFDIWGQGTIVTVSS
VL: DIQMTQSPSSLSASVGDRVTITCQASQDISNYFNWYQQKPGKAPKLLIYDASNLETGVPSRFSGSGSGTDFTFTISSLQPEDIATYYCQQYDNLPMYTFGQGTKLEIK
On to B4, for which the other in experiment [1] was 81.8%. In experiment [2], binding was put at a Kd of 50.8 nM.

B5: P5A-1B9 (full-length IgG) (antibody, V domains shown)
VH: QVQLQESGPGLVKPSETLSLTCTVSGGSISSYYWSWIRQPPGKGLEWIGYISYSGSTNYNPSLKSRVTISLDTSKNQFSLKLSSVTAADTAVYYCASNGQYYDILTGQPPDYWYFDLWGRGTLVTVSS
VL: not shown
Consider B5, for which the other in experiment [1] was found to be 43.8%. Further, binding in experiment [2] was put at a Kd of 0.75 nM.

B6: P5A-1B8 (full-length IgG) (antibody, V domains shown)
VH: EVQLVESGGGLIQPGGSLRLSCAASGFTVSSNYMSWVRQAPGKGLEWVSVIYPGGSTFYADSVKGRFTISRDNSKNTLYLQMNSLRAEDTAVYYCARETLAFDYWGQGTLVTVSS
VL: DIQLTQSPSFLSASVGDRVTITCRASQGISSYLAWYQQKPGKAPKLLIYAASTLQSGVPSRFSGSGSGTEFTLTISSLQPEDFATYYCQQLNSYPPAFGGGTKVEIK
In the case of B6, the other in experiment [1] is 79.6%. This molecule also showed a dissociation constant (Kd) in experiment [2] of 1.09 nM.

B7: P2B-1A1 (full-length IgG) (antibody, V domains shown)
VH: QVQLQESGPGLVKPSETLSLTCTVSGGSISSYYWSWIRQPPGKGLEWIGYIYYSGSTNYNPSLKSRVTISVDTSKKQFSLKLSSVTAADTAVYYCARLERDWPLDAFDIWGQGTMVTVSS
VL: QSALTQPASVSGSPGQSITISCTGTSSDVGGYNYVSWYQQHPGKAPKFMIYDVSKRPSGVSNRFSGSKSGNTASLTISGLQAEDEADYYCSSYTSNNTFAFGGGTKLTVL
With B7, the other in experiment [1] was -9.7%. The same molecule displayed a Kd in experiment [2] of 27 nM.

B8: P5A-2G7 (full-length IgG) (antibody, V domains shown)
VH: QVQLQESGPGLVKPSETLSLTCTVSGDSVSSGSYYWSWIRQPPGKGLEWIGYIYYSGSTNYNPSLKSRVTISVDTSKNQFSLKLSSVTAADTAVYYCARERCYYGSGRAPRCVWFDPWGQGTLVTVSS
VL: QSALTQPASVSGSPGQSITISCTGTSSDVGGYNYVSWYQQHPGKAPKLMIYDVSNRPSGVSNRFSGSKSGNTASLTISGLQAEDEADYYCSSYTSSSTLVVFGGGTKLTVL
Consider B8, for which the other in experiment [1] is 57.2%. This molecule also showed a Kd in experiment [2] of 3.55 nM.

B9: P5A-2G9 (full-length IgG) (antibody, V domains shown)
VH: QVQLVESGGGVVQPGRSLRLSCAASGFTFSSYGMHWVRQAPGKGLEWVAVIWYDGSNKYYADSVKGRFTISRDNSKNTLYLQMNSLRAEDTAVYYCARWFHTGGYFDYWGQGTLVTVSS
VL: QPVLTQPPSSSASPGESARLTCTLPSDINVSSYNIYWYQQKPGSPPRYLLYYYSDSDKGQGSGVPSRFSGSKDASANTGILLISGLQSEDEADYYCMIWPSNALYVFGTGTKVTVL
For the molecule B9, the other in experiment [1] was found to be 84.9%. For the same molecule, the Kd in experiment [2] came out at 6.98 nM.

The Kd is the equilibrium constant for the complex coming apart.
